Measurements reported in article PMC9482650, “Quantitative fragmentomics allow affinity mapping of interactomes” (Nature Communications, 2022).

Assays:
Experiment in all cases: holdup assay
Design in all cases: key: below the threshold = too weak to quantify, mostly under pKd 3.1 to 4
[1] = biological target: SCRIB_2, Q14160
[2] = biological target: T1, CARD11, Q9BXL7
T1 sequence (Q9BXL7 662-765, limits assumed, looked up): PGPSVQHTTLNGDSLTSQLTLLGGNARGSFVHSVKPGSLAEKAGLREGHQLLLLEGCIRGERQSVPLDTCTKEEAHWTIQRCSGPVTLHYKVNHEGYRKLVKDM

[3] = biological target: Inadl_10, Q8NI35
Inadl_10, Q8NI35, sequence (Q8NI35 1673-1763): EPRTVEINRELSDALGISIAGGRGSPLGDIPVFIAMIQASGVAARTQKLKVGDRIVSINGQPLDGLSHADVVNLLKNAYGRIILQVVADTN

[4] = biological target: DLG4_3, P78352
DLG4_3, P78352, sequence (P78352 306-403): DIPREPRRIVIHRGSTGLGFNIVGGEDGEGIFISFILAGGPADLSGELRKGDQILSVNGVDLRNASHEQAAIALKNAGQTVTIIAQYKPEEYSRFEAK

[5] = biological target: IL16_3, Q14005
IL16_3, Q14005, sequence (Q14005 1107-1207): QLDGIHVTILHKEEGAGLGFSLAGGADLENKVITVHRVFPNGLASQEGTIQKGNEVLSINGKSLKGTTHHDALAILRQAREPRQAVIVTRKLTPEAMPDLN

[6] = biological target: SCRIB_3, Q14160
SCRIB_3, Q14160, sequence (Q14160 999-1103): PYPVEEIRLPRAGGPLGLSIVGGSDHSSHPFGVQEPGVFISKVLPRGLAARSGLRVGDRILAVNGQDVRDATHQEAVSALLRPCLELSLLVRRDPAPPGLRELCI

[7] = biological target: Inadl_5, Q8NI35
Inadl_5, Q8NI35, sequence (Q8NI35 673-780): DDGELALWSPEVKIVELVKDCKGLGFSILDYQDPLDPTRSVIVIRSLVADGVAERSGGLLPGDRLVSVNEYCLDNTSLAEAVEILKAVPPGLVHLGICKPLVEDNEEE

[8] = biological target: T2, LNX2_2, Q8N448
T2 sequence (Q8N448 334-432, limits assumed, looked up): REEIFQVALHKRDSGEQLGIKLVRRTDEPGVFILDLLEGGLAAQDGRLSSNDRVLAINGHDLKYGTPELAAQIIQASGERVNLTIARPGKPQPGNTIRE

[9] = biological target: T3, PCLO, Q9Y6V0
T3 sequence (Q9Y6V0 4491-4600, limits assumed, looked up): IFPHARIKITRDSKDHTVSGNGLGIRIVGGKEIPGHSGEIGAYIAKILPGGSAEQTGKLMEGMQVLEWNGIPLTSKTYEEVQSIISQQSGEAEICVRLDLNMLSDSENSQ

[10] = biological target: DLG5_1, Q8TDM6
DLG5_1, Q8TDM6, sequence (Q8TDM6 617-713): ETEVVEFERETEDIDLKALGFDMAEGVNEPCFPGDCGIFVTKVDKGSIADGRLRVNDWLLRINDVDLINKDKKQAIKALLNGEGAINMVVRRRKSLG

[11] = biological target: PICK1, Q9NRD5
PICK1, Q9NRD5, sequence (Q9NRD5 17-115): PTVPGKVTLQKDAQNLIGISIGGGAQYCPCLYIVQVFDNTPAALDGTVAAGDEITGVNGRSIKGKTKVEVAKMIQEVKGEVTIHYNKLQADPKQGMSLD

[12] = biological target: TJP2_1, Q9UDY2
TJP2_1, Q9UDY2, sequence (Q9UDY2 24-128): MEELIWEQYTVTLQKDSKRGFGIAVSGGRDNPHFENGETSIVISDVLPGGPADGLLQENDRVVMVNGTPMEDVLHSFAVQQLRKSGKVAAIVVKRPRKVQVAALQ

[13] = biological target: T4, HTRA3, P83110
T4 sequence (P83110 354-453, limits assumed, looked up): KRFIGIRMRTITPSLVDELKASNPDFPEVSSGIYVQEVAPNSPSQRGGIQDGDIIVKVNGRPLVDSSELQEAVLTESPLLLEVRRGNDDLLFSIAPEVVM

[14] = biological target: GRIP2_5, Q9C0E4
GRIP2_5, Q9C0E4, sequence (Q9C0E4 544-642): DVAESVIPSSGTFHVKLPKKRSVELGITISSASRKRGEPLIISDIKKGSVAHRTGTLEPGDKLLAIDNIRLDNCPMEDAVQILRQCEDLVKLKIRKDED

[15] = biological target: T5, LIN7B, Q9HAP6
T5 sequence (Q9HAP6 88-185, limits assumed, looked up): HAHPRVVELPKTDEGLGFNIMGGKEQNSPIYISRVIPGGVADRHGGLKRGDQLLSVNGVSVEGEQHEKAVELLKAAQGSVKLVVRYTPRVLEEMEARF

[16] = biological target: MAGI2_4, Q86UL8
MAGI2_4, Q86UL8, sequence (Q86UL8 772-865): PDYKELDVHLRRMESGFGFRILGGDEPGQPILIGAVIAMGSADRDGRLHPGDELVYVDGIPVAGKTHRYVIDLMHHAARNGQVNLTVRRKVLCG

[17] = biological target: GRIP2_7, Q9C0E4
GRIP2_7, Q9C0E4, sequence (Q9C0E4 934-1023): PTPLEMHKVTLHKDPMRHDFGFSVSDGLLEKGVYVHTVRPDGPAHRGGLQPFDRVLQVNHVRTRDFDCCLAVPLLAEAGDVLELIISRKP

[18] = biological target: T6, NHERF3_1, Q5T2W1
T6 sequence (Q5T2W1 4-100, limits assumed, looked up): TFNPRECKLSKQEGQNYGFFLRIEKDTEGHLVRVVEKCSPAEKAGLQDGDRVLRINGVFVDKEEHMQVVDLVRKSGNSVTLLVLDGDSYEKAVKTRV

[19] = biological target: LDB3, O75112
LDB3, O75112, sequence (O75112 1-94): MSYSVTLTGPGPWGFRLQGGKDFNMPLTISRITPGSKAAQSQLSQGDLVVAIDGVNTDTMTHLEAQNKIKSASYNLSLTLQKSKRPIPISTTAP

[20] = biological target: GRID2IP_2, A4D2P6
GRID2IP_2, A4D2P6, sequence (A4D2P6 272-370): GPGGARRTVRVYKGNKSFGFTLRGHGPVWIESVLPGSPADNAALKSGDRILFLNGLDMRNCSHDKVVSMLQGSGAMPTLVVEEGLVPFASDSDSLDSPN

[21] = biological target: T7, NHERF3_3, Q5T2W1
T7 sequence (Q5T2W1 238-333, limits assumed, looked up): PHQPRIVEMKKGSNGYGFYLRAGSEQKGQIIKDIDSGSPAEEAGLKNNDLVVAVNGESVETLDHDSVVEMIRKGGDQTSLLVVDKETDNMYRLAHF

[22] = biological target: NHERF4_1, Q86UT5-2
NHERF4_1, Q86UT5-2, sequence (Q86UT5 other isoform, or with tags, fused parts or gaps): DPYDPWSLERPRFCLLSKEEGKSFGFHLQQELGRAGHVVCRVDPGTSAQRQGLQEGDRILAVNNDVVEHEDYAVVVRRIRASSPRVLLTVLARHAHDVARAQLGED

[23] = biological target: T8, SNTG1, Q9NSN8
T8 sequence (Q9NSN8 52-150, limits assumed, looked up): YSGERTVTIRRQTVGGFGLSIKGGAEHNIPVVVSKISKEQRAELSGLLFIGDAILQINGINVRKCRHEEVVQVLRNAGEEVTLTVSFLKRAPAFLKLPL

[24] = biological target: GOPC, Q9HD26
[25] = biological target: SNX27, Q96L92
[26] = biological target: T9, LRRC7, Q96NW7
T9 sequence (Q96NW7 1440-1537, limits assumed, looked up): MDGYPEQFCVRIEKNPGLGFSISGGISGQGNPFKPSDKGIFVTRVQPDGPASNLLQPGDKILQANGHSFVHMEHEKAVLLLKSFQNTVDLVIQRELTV

[27] = biological target: NHERF4_2, Q86UT5
NHERF4_2, Q86UT5, sequence (Q86UT5 220-308): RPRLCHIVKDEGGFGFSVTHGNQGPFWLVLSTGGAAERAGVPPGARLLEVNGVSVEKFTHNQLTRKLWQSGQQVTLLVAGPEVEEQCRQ

[28] = biological target: LAP2, Q96RT1
LAP2, Q96RT1, sequence (Q96RT1 other isoform, or with tags, fused parts or gaps): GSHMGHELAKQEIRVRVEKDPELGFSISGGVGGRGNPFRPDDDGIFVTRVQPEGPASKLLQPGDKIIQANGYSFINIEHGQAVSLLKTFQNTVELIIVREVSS

[29] = plain residues with an end cap or a label only (N-terminal biotin on a linker: (peg)3)
[30] = plain residues with an end cap or a label only (N-terminal biotin on a linker: ado-ado)

SCRIB_2, Q14160, sequence (Q14160 857-960): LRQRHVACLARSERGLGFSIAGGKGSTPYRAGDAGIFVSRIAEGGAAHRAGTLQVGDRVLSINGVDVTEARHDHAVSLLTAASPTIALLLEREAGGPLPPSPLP

For QQSMSSADSTQA [SARS-Cov2-N, P0DTC9], the pKd [1, 29] was “below the threshold”, the pKd [2, 29] was “below the threshold” and the pKd [3, 29] was “below the threshold”. The pKd [4, 29] was “below the threshold”, the pKd [5, 29] was “below the threshold” and the pKd [6, 29] was “below the threshold”. The pKd [7, 29] was “below the threshold”, the pKd [8, 29] was “below the threshold” and the pKd [9, 29] was “below the threshold”. The pKd [10, 29] was “below the threshold”, the pKd [11, 29] was “below the threshold” and the pKd [12, 29] was “below the threshold”. The pKd [13, 29] was “below the threshold”, the pKd [14, 29] was “below the threshold” and the pKd [15, 29] was “below the threshold”. For the same binder, the pKd [16, 29] was “below the threshold”, the pKd [17, 29] was “below the threshold” and the pKd [18, 29] was “below the threshold”. The pKd [19, 29] was “below the threshold”, the pKd [20, 29] was “below the threshold” and the pKd [21, 29] was “below the threshold”. For the same binder, the pKd [22, 29] was “below the threshold”, the pKd [23, 29] was “below the threshold” and the pKd [24, 29] was “below the threshold”. For the same binder, the pKd [25, 29] was “below the threshold”, the pKd [26, 29] was “below the threshold” and the pKd [27, 29] was “below the threshold”. The pKd [28, 29] was “below the threshold”.

In the case of EDPRVEVTQF [SLC22A9, Q8IVM8], the pKd [1, 30] is reported as “below the threshold”, the pKd [2, 30] is reported as “below the threshold” and the pKd [3, 30] is reported as “below the threshold”. For the same binder, the pKd [4, 30] was “below the threshold”, the pKd [5, 30] was “below the threshold” and the pKd [6, 30] was 3.66. For the same binder, the pKd [7, 30] was “below the threshold”, the pKd [8, 30] was “below the threshold” and the pKd [9, 30] was “below the threshold”. The pKd [10, 30] was “below the threshold”, the pKd [11, 30] was “below the threshold” and the pKd [12, 30] was “below the threshold”. The pKd [13, 30] was “below the threshold”, the pKd [14, 30] was “below the threshold” and the pKd [15, 30] was 3.83. For the same binder, the pKd [16, 30] was “below the threshold”, the pKd [17, 30] was “below the threshold” and the pKd [18, 30] was 4.58. For the same binder, the pKd [19, 30] was “below the threshold”, the pKd [20, 30] was “below the threshold” and the pKd [21, 30] was “below the threshold”. The pKd [22, 30] was 4.3, the pKd [23, 30] was “below the threshold” and the pKd [24, 30] was “below the threshold”. The pKd [25, 30] was 5.39, the pKd [26, 30] was “below the threshold” and the pKd [27, 30] was “below the threshold”. For the same binder, the pKd [28, 30] was “below the threshold”.

APIAGFSSFV [SDK2, Q58EX2] was tested, and the pKd [1, 30] was 3.62, the pKd [2, 30] was “below the threshold” and the pKd [3, 30] was 4.25. For the same binder, the pKd [4, 30] was “below the threshold”, the pKd [5, 30] was “below the threshold” and the pKd [6, 30] was 4.06. For the same binder, the pKd [7, 30] was 3.82, the pKd [8, 30] was 4.13 and the pKd [9, 30] was “below the threshold”. For the same binder, the pKd [10, 30] was “below the threshold”, the pKd [11, 30] was “below the threshold” and the pKd [12, 30] was 4.19. The pKd [13, 30] was 4.49, the pKd [14, 30] was “below the threshold” and the pKd [15, 30] was “below the threshold”. The pKd [16, 30] was 3.94, the pKd [17, 30] was “below the threshold” and the pKd [18, 30] was 5.08. For the same binder, the pKd [19, 30] was “below the threshold”, the pKd [20, 30] was 4.61 and the pKd [21, 30] was “below the threshold”. For the same binder, the pKd [22, 30] was 3.59, the pKd [23, 30] was 3.83 and the pKd [24, 30] was 4.13. The pKd [25, 30] was 4.38, the pKd [26, 30] was 3.65 and the pKd [27, 30] was “below the threshold”. The pKd [28, 30] was 4.17.
